Measured values from US20030044400A1, “Composition and method for treating cells” (priority 2001, published 2003).

B1: commercial fetuin: commercial fetuin purchased from Sigma, prepared by the Pederson Method (protein, UniProt P12763 19-359, looked up)
Alpha-2-HS-glycoprotein: IPLDPVAGYKEPACDDPDTEQAALAAVDYINKHLPRGYKHTLNQIDSVKVWPRRPTGEVYDIEIDTLETTCHVLDPTPLANCSVRQQTQHAVEGDCDIHVLKQDGQFSVLFTKCDSSPDSAEDVRKLCPDCPLLAPLNDSRVVHAVEVALATFNAESNGSYLQLVEISRAQFVPLPVSVSVEFAVAATDCIAKEVVDPTKCNLLAEKQYGFCKGSVIQKALGGEDVRVTCTLFQTQPVIPQPQPDGAEAEAPSAVPDAAGPTPSAAGPPVASVVVGPSVVAVPLPLHRAHYDLRHTFSGVASVESSSGEAFHVGKTPIVGQPSIPGGPVRLCPGRIRYFKI
B2: mature fetuin: fetuin isolated from mature bovine serum (protein, UniProt P12763 19-359, looked up)
Alpha-2-HS-glycoprotein: B1 Alpha-2-HS-glycoprotein
B3: human fetuin: human fetuin (Alpha 2-HS glycoprotein) isolated from adult human serum (protein, UniProt P02765 19-300; P02765 341-367, looked up)
Alpha-2-HS-glycoprotein chain … 1: APHGPGLIYRQPNCDDPETEEAALVAIDYINQNLPWGYKHTLNQIDEVKVWPQQPSGELFEIEIDTLETTCHVLDPTPVARCSVRQLKEHAVEGDCDFQLLKLDGKFSVVYAKCDSSPDSAEDVRKVCQDCPLLAPLNDTRVVHAAKAALAAFNAQNNGSNFQLEEISRAQLVPLPPSTYVEFTVSGTDCVAKEATEAAKCNLLAEKQYGFCKATLSEKLGGAEVAVTCMVFQTQPVSSQPQPEGANEAVPTPVVDPDAPPSPPLGAPGLPPAGSPPDSHVL
Alpha-2-HS-glycoprotein chain … 2: TVVQPSVGAAAGPVVPPCPGRIRHFKV

Experiments:
[1] = system: all the cell lines; assay: Zn or Ba alone on the cell lines; assay type: cell-based; details: all concentrations tested (up to 66 uM)
Method: (§1) Fetuin purified by modified Spiro method was further incubated with Zinc Acetate or Barium Acetate (0.25M) at room temperature for 1 hr. Free ions were removed by repetitive concentration against 20 volumes of PBS three times. Fetuin, Zn-charged fetuin and Ba-charged fetuin (5 uM) and PBS were then separately incubated with LNCaP cells for 4 hr. Percent of cells under apoptosis was determined by Hoechst staining and confirmed by MTS assay. Each data represents the average of two assays. Zn-charged or Ba-charged fetuin may contain free Zn or Ba (about 30 uM). However, all the cell lines are not affected by Zn or Ba alone at all concentrations tested (up to 66 uM).

[2] = system: LNCaP cells; assay: Fetuin-induced apoptosis, Hoechst staining confirmed by MTS assay; assay type: cell-based, Human; details: for apoptosis-inducing activity in LNCaP cells: fetal vs mature fetuins at the same concentration
Method: The purified fetuin was tested on various cancer cell lines. […] The DNA condensation and breakage of nuclei which are the characteristics for apoptosis were observed by staining the cell with Hoechst dye at 0.1 ug/ml.
as §1
Various concentrations of Zn-charged fetuin prepared as described were incubated with cell lines for 6 hr. Percent of cell under apoptosis was determined by Hoechst staining and confirmed by MTS assay. The concentration of Zn-charged fetuin for the induction of 50% of cells under apoptosis (LD50) was determined. Each data represents the average of three assays.

Molecule	effect of free ion alone on the cell lines [1]	apoptosis-inducing activity in LNCaP cells [2]	other results
CC(=O)[O-].CC(=O)[O-].[Ba+2] [Ba]	not affected	–	–
CC(=O)[O-].CC(=O)[O-].[Zn+2] [Zn]	not affected	–	–
B1	–	–	apoptotic activity by method of preparation ([2]; Pederson Method (Sigma) vs modified Spiro method): did not show apoptotic activity
B2	–	no activity inducing apoptosis	–
B3	–	fails to induce apoptosis	–
